Molecular target: PltB homopentamer, biotinylated (Salmonella enterica serovar Typhi; …, UniProt Q8Z6A3, biotinylated with EZ-link NHS-Biotin (sites not given))

Binder | binding result
T2E8 (VHH) VHH: QVQLAESGGGSVQAGGSLRLSCAASGLTFDKYAIGWFRQAPGKGREMVSCINTNYGSTYYADSVKGRFTISSDTAKNTVYLQMNSLSPEDTAVYYCAADTRSSWPSCNALDTWGQGTLVTVSS | binds
T2A3 (VHH) VHH: QVQLAESGGGLVQAGGSLRLSCAASGLTFDKYAIGWFRQAPGKERELVSCISTNYGSPYYADSVKGRFTISSDNAKNTVYLQMNSLKPEDTAVYYCAADTRSSWPSCNALDARGQGTLVTVSS | binds
T2D2 (VHH) VHH: QVQLAETGGGLVQPGGSLRLSCAASGFDFSRSTMSWVRQAPGKNIEWVSDINSGGGLTNYGDTVKDRFTISRDNAKNTLYLQMNSLDVEDTAVYYCVKGMWITSDQPRGQGTQVTVSS | binds
T2B4 (VHH) VHH: QVQLVETGGALVQTGGSLRLSCAVSGRSSSTQGLGWYRQAPGKEREFVATINWISGATYYSDSVKGRFSISRDNAENTVSLQMHDLKPDDTAVYYCGAGLSPIARMDYWGQGTQVTVSS | binds
T2A1 (VHH) VHH: QVQLVESGGGLVQAGGSLRLTCAGSGRTFSGDVMGWFRQAPGKEREFVAAISYNGGSTYYADSVKGRFTISRDNAKNTVYLQMDGLKPGDTAVYYCASSREDYGSSLAKGSYDYWGQGTQVTVSS | binds
T2A7 (VHH) VHH: QVQLVETGGGLVQTGGSLRLSCAASGFTFDDFAIGWFRQAPGKEREWVSCISSRNGSPYYADSVKGRFTISSDNAKNTVYLQMNSLKPEDTAVYYCKADTDSIVPSCNALDTWGQGTLVTVSS | binds
T2D10 (VHH) VHH: QVQLAETGGGLVQAGGSLRLSCAASGLTSSRYAMAWFRQVPGLEREFVASMTGSGGRTFYADSVKGRFTISRDNAKNTVYLQMNNLNPEDTAVYYCAVEYRDSGTRWSNEYDYWGQGTQVTVSS | binds
T2B2 (VHH) VHH: QLQLAESGGGLVQAGGSLRLSCAASGRTFNTLHLAWFRQAPGNERDFVASISGSLGSLHYADSVKGRFTISRDNANNTVYLQMNSLKLEDTAVYYCAGAPIYDRFSSSSSSYDYWGQGTQVTVSS | binds
T2G6 (VHH) VHH: QVQLVESGGGLVQAGGSLRLSCAASGFTFDDYAIGWFRQAPGKEREMILCINSRSGSTSYYADSVKGRFTVSVNSAKNTAYLQMNSLKPEDTAVYYCAADVTHPHSCNALDAWGQGTLVTVSS | binds
T2B6 (VHH) VHH: QLQLAESGGGLVQAGDSLRLSCADSGRTFSDYAMGWFRQAPGKEREFVAAISWNGRSTYYIEAVKDRFTISRDNAKKTLYLQMNSLKPEDTAVYYCAAAREDYGSSLVKGSADYWGQGTQVTVSS | binds
T2A2 (VHH) VHH: QVQLAETGGGLVQPGGSLRLSCAVSGFMVNSYDIGWFRQAPGKEREGVSCISSSGGATHYVDSVKGRFTISRDNAKNMVYLQMNSLKPEDTATYYCAANRMTRCSDYHGYPFWGQGTQVTVSS | binds
T2D9 (VHH) VHH: QLQLVESGGGLVQPGGSLRLSCVLSGSDLAYYNVGWFRQAPGKEREGVACTSRVSDTKYYADSVKARFTVARDNAKNTVNLQMSSLRPEDTAVYSCALLRWCTTEDSDSEGMGHWGKGTLVTVSS | binds
T2C1 (VHH) VHH: QVQLVETGGGLVQAGGSLRLSCAASGRTFSGDAMGWFRQAPGKEREFVAAISWNGGSTDYADSVKGRFTISRDAKNTVYLQMNSLKPEDTAVYYCASSREDYGSSFLRGSYDYLGQGTQVTVSS | binds
